Results published in the supplement of paper PMC12764529.
± gives the half width of the 95% confidence interval.

How the values were obtained:
[1] = folding stability dG unfold (combined trypsin and chymotrypsin); higher = more stable
Summary of the method: (§1)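 Digests were run with trypsin and chymotrypsin at 11 concentrations in threefold dilutions, plus a no-protease condition, on designed mini-proteins in a PA-tagged cDNA display construct. The mini-proteins were under 80 residues, had no cysteine, and were kept only when AlphaFold2 dimer inter-PAE was above 15. After sequencing, Bayesian fitting of the counts gave K50, from which unfolding free energy was derived against a sequence-predicted unfolded-state K50 and a shared folded-state K50, per protease or combined.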

[2] = folding stability dG unfold from trypsin proteolysis; higher = more stable
Protocol: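 Folding stability of de novo designed mini-proteins (<80 aa, no Cys; designed by TrROS, TrMRF, ProteinMPNN and the joint model) was measured by cDNA display proteolysis with trypsin and chymotrypsin. Each protease was used at 11 concentrations in a threefold dilution series plus a no-protease condition. K50 was inferred by Bayesian fitting of sequencing counts, and dG unfold was derived against a sequence-predicted unfolded-state K50 (Tsuboyama et al. method). Sequences shown include variable-length N-terminal GS-type padding (SAGGSAGG...) inside a display construct carrying a PA tag. Rows were kept only if the AF2 dimer inter-PAE was >15, to exclude likely homo-oligomers.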

[3] = folding stability dG unfold from chymotrypsin proteolysis; higher = more stable
Summary of the method: as §1

| Sequence | folding stability dG unfold [1] [kcal/mol] | folding stability dG unfold [2] [kcal/mol] | folding stability dG unfold [3] [kcal/mol] |
| --- | --- | --- | --- |
| ATVTITDVSFDPETNTITVTVTVTGPDGTTTTFTATFRIEPAPPPAPPAPVYVVDDDGKVYNLDTGEWKDVS [r1_270_TrROS_Hall] | 2.21 ± 0.054 | 2.12 ± 0.048 | 2.3 ± 0.037 |
| ATVTVEKLPDGYRVTVTIGATYIDPETGKPVELSAPVTAFVPPEVPDPEVAAKRAAAEALAEFLAALPEGGS [r1_414_TrMRF] | 1.85 ± 0.091 | 2 ± 0.057 | 1.74 ± 0.023 |
| DWLIRIKFTYKGPDGNKHEMKIIVRVPESPEQAKEEVEDIARMIMEEQGYPPENIKKIKVEVIPPGEELTPS [r1_159_TrROS] | 3.91 ± 0.14 | 3.46 ± 0.1 | 4.203 ± 0.041 |
| EAFEKAIEAAIEAAEKGEKETEITLPLPDGKAIRVHATVEVKDGKPVRVDIHVELYGPNNVPYPFTLTITAS [r1_254_TrMRF] | 2.38 ± 0.18 | 2.37 ± 0.13 | 2.83 ± 0.13 |
| EKYIVKIKITVRRKVETETLPDGSKKTRYETKTLEIEIEVSLEELKKLLEELNLPEDEITSVEIEVYPEEES [r1_351_TrROS_Hall] | 4.31 ± 0.73 | 3.3 ± 0.24 | 4.58 ± 0.32 |
| EMTEEELREKLPELSPEELEELARKLAEELGIEEVEEVEVVSVKPDGTIEVKVKLKDGEELTIEIPLEELLS [r1_435_TrROS_Hall] | 2.47 ± 0.22 | 2.8 ± 0.26 | 2.07 ± 0.15 |
| ERDLIVIAGDDLTPEQLRELLEELGFRPEDAEIFREGDALLIVLPDAVILVVRPPPLPVLSEDDPELLEEAS [r1_57_TrMRF] | 3.19 ± 0.2 | 3.22 ± 0.16 | 3.28 ± 0.23 |
| ETIYLSSSNPEEVIKALKEAASKGKTVVVEANPEFFKEFIAQGFKVEKILKIEPIPGGDGYRAEIKISPGGS [r1_173_TrMRF] | 1.97 ± 0.14 | 1.64 ± 0.082 | 1.95 ± 0.063 |
| FKFKITELSFNPEWGYIHFNVKVEGPDGQPQTFPIMIRIRIPPPPPPPPPPMRADPDGKVRNPDDGKEHDAS [r1_270_TrROS] | 4.26 ± 0.63 | 3.3 ± 0.1 | 4.9 ± 0.27 |
| GEVVERLKLPDLELVEVRTTTEGDTTFVYVKLKRPDSYYVVKLTVTPATGEVTVTEEKKVSPNETLEEVLAS [r1_383_JUSTAS] | 2.36 ± 0.21 | 1.66 ± 0.12 | 2.76 ± 0.12 |
| GFEVTAEIEVYEDPESGAKVVKVTIPVKNGDPEVLEKAAKELAKKLFGPGAKFDPKIDPETGRVEVTGVLAS [r1_273_TrMRF] | 1.38 ± 0.13 | 0.942 ± 0.046 | 1.57 ± 0.07 |
| GKAEVVRVEYDPETGALRVVLRREGADVVLEVDPETGVARVYFPADPRVLEFEFDTLEEAVDAAVALLEAGS [r1_177_TrMRF] | 4.36 ± 0.14 | 3.59 ± 0.17 | 4.66 ± 0.14 |
| GLTVTLDGNSLTVTADAGDKTVTVTAPVFHPEKGLVTVVTVTATREDGALVLHTESRTIRLPPLPPLHPDLS [r1_100_TrMRF] | 3.59 ± 0.43 | 2.21 ± 0.29 | 4.18 ± 0.57 |
| KTYTIDEIAEKLGMSKEELKNMSAEEIKEALKKLLPPEEIEKVEISYNEKDKKVTITVTLKNGEKVEITIDS [r1_340_TrROS_Hall] |  | 4.04 ± 0.71 | 5.06 ± 0.23 |
| SAGGDVGLEEKAREIAEELREEISKKLGVNVKVTEVKVEYDPKTGKYTVTVTITLPGGETITITVPESAGGS [r8_372_JUSTAS] |  | 3.85 ± 0.32 | 4.36 ± 0.54 |
| SAGGKPKKKPPPVIEIVDIRVEYDPETKEVRITVKIRLPNGETLTLTITVPPGTTLEELLEKLKELLSSAGG [r13_578_TrROS_Hall] |  | 4.11 ± 0.61 | 2.71 ± 0.11 |
| SAGGSAGGDPNKPPPPKQIEIPIPPDNITDVEPNPDGFYFMEFNLPDGDSITIIVYPDGNIHIMSAGGSAGG [r6_119_TrROS] |  | 2.83 ± 0.28 | 4.25 ± 0.34 |
| SAGGSAGGSAGGKKKLKIKIEIKIEEKIKKTPNGKLEKEKKIEITKIIEIEPDSPLLKKLSAGGSAGGSAGG [r7_889_TrROS_Hall] |  | 2.17 ± 0.14 | 0.948 ± 0.29 |
| SAGGSAGGSAGMITIYAPPSVPVEEVREEVKEKIKKENPNDPKEVKGVEVDPNGSLEELESAGGSAGGSAGG [r17_43_JUSTAS] |  | -0.286 ± 0.12 | -0.655 ± 0.31 |
| SAGSPIDLGEVEVEEKPVETDPATGLTTTETVITAPDGRPVFVKYTTKDPATGTTTVTETPVGVDPELTSAG [r5_200_JUSTAS] | < -1 | -0.556 ± 0.096 |  |
| SAGSSSTTIEVPVGDPAKAGSVEEYKEKLIKEGFSESDVPTATPLPDGTRLVTFKSPSTTVTLVVPLGESAG [r5_144_JUSTAS] | -0.846 ± 0.2 | -0.341 ± 0.056 |  |
| SAGSTVEVLEERPLEDGSVLVRVRVDDAAPDGSPVAVVDVLVLPGGEAVMTFPDGTPVRLPLSELGLPPSAG [r5_137_JUSTAS] | -0.319 ± 0.2 | 0.108 ± 0.14 |  |
| SAGVTVERKPGDGSLTVTVPADDGPLTIEVDLLPNTGTLKATVTYDDGTPATYTFPGGTLEDIIERLHSAGG [r19_159_TrMRF] | -0.153 ± 0.22 | -0.0867 ± 0.088 |  |

| Sequence | folding stability dG unfold [1] [kcal/mol] | folding stability dG unfold [2] [kcal/mol] | folding stability dG unfold [3] [kcal/mol] |
| --- | --- | --- | --- |
| SAKIPAEEIAEEIAENFGFEPVEVDEIDPDEGKIIIRFPGWQIEVEVDPEDGEIEIEMEFYDPEDGKPFSAG [r14_270_TrROS] | -0.0386 ± 0.18 | 0.46 ± 0.045 |  |
| SAKLTPEEIEELAEKLAKELAEKEGIEKVEVKVEKKEDGKVTVEIRFEKNKKTIRIEFENGEVKIVEIESAG [r14_925_TrROS_Hall] | 2.97 ± 0.72 | 2.62 ± 0.39 |  |
| SAMDIEIEPTEGMMEIKLPGKEIHIMQHPNYMHIQIKYPEGEPVSIPIDPNSPPEDMIDNLLKLLEKAGSAG [r14_618_TrROS] | -0.499 ± 0.55 | 0.425 ± 0.042 |  |
| SAMLVVLKDPKTGKLILVDPEQLSPEYLERGVEPVREIPPLEVVEVESEEEAEEIRKKYPEKILVTLGPSAG [r14_638_JUSTAS] | -0.121 ± 0.26 | 0.68 ± 0.1 |  |
| SANFDKAPPIEVKTEVSSFPADEEKIDPKTGKKSKRKRTITPVTVTKDGKTYTSTTTTYPDGSTETTTSSAG [r14_225_JUSTAS] | -0.249 ± 0.24 | -0.0456 ± 0.2 |  |
| SAPDNIKVDINIERNPEDGHIRVEMEIEYPDGNEVYHSAWIDPDNGKIEIDVQVPNGKQIAEETIQIKPSAG [r14_524_TrROS] | < -1 | 0.166 ± 0.097 |  |
| SAPVKDKNGKKREVEIHIWVPEEERKKNGTPEQIKWLARERARAAGLKPDRIKEVKIKIMPPEDMPEGFSAG [r14_446_TrROS] | < -1 | -0.729 ± 0.54 |  |
| SDLRNMPIEELAKRIAREHGIEDVKVEVSRTGDSLTIPIEIRDPEQGMKYKVMIMVDPPDDGRIGIGVERSA [r9_1042_TrROS] | 0.0221 ± 0.42 | 0.275 ± 0.29 |  |
| SETVTIEVEIEVKLPDGSTYRVRLTVEFDKETGKITLKMTVEYNGKTYEVELSEEEIKALLDELLKKLGLSA [r9_1136_TrROS_Hall] | > 6 | 4.22 ± 0.29 |  |
| SFRIEPDPDGTVTVRIPKDFPNKPAEEIADYIQKAFGPGMKIDKDIKIEPDPENGWVEITVKVKLPPGAKSA [r9_1011_TrROS] | 0.0899 ± 0.33 | 0.913 ± 0.16 |  |
| SIERPGGEPVTLTVTVERPPGVRTTRTFTTPASELEARRGRDVTDEEIIAAVKEELAAAGDRALAVTVDRTS [r1_338_JUSTAS] | < -1 | -0.807 ± 0.68 |  |
| SKEILEAEVEEILKLLPESLKPDVPRELVFPGVKITVTKYEPVDKNKGGKKPTTVVTIELPEGPVTIPLPSA [r9_279_JUSTAS] | -0.531 ± 0.18 | 0.548 ± 0.034 |  |
| SKTVEIPIRNPNGMQVNIMANPEKGKVMIHMGNNMPFENIKKALRELLPPGKDVDITTHPNGMAVIELKPSA [r9_933_TrROS] | -0.734 ± 0.43 | -0.277 ± 0.19 |  |
| SMEIKVTVEEKDGKKYVTIEIKLSEEELKGKELTEEEIEELARELAKKLGIKEVKIERLPNGTYRIVIELSA [r9_883_TrROS_Hall] | > 6 | 4.47 ± 0.39 |  |
| SMKLKITIPLPGNNEINIEIEIKPYFDPNTKKLYFEANIKVTFTYYIPGFDKPFSFTSEFKFRFELSDDLSA [r9_140_TrMRF] | > 6 | 4.46 ± 0.16 |  |
| SMLTSPDGTSVTIETKVSPSAGPLPPFFEQTYDPSKDTITVNAPASPEEVAAIRAAPGLETLAVTFTPAESA [r9_827_JUSTAS] | < -1 | -0.874 ± 0.23 |  |
| SMRLVPVPVRSADGRASVDEIRAAIREALPEGLRVDFGEEFIERALREAERRYGGRLRPDDFPILVPVLGSA [r9_197_TrMRF] | < -1 | -0.209 ± 0.15 |  |
| SMYRIEVVRDGKPIPREAVEAAAEAIERARGRPISPEALARELASVPNTVVTVEAYDEPGKPLGTLTFAESA [r9_1045_TrMRF] | -0.703 ± 0.37 | -0.253 ± 0.17 |  |
| SPIILPGASTVTINATVTVEPRDPATGTVLSSRDLPVPVTVTTNADGTVTITVDVPADVPADAAVTVDLTSA [r9_90_JUSTAS] | -0.338 ± 0.1 | 0.239 ± 0.018 |  |
| SPKIEIEPMPPNMFIAKIRDPEKNKKVSIHIPPNMPPGQPMQVYDPDKPKWVPFNEIEELLKKGLPVEIYSA [r9_250_TrROS] | -0.496 ± 0.98 | 0.0989 ± 0.23 |  |
| SPLTPEQIEELAKEIAQEFPNVKVKIYPNDEPIEIKAPGAEIEIWPPPGEFYIQIEFPGNGKPKQIPIPPSA [r9_1062_TrROS] | -0.583 ± 0.25 | 0.00765 ± 0.051 |  |
| SYRPITIQMPSPEDLKKLEEAFEDDGFENVNIHRDPPGWHTITITQKGPPEQLQDRIREAFDENGFQIQPSA [r9_1003_TrROS] | < -1 | 0.0855 ± 0.11 |  |
